In patent publication US20160280792A1 (Kyowa Kirin, published 2016):

Assays:
Test in all cases: flow cytometry, labelled antibody at 1 µg/ml, HEK293T cells expressing the construct
[1] = biological target: T1, IL-3Rα/GM-CSFRα chimeric protein, region 3 (91-STWILFPE-98) of IL-3Rα replaced by GM-CSFRα sequence, on … (human, UniProt P26951 19-378)
T1 construct: also called Region 3 (A)
T1 chain: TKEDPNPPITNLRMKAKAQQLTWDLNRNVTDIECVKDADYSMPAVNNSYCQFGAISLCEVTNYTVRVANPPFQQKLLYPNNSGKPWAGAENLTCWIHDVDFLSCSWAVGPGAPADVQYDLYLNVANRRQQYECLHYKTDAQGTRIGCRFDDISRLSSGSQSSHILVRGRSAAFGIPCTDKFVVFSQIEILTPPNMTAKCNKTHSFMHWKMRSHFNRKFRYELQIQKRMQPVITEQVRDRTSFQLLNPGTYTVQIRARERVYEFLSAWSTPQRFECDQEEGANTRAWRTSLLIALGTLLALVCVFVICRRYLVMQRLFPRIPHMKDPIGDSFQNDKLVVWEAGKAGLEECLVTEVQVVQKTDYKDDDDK

[2] = biological target: T2, IL-3Rα/GM-CSFRα chimeric protein, region 6 (182-ILVRGRS-188) of IL-3Rα replaced by GM-CSFRα sequence, on … (human, UniProt P26951 19-378)
T2 construct: also called Region 6 (B)
T2 chain: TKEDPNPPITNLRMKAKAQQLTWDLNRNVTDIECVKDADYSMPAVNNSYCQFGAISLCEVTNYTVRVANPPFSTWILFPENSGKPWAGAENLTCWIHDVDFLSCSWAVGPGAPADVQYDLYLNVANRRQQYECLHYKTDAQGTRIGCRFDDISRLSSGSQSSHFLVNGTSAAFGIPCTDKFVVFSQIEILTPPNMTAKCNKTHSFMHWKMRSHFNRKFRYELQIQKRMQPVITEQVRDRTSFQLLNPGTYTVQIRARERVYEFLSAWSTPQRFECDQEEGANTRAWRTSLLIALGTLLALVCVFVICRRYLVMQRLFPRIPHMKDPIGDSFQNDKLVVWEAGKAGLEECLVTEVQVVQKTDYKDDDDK

[3] = biological target: T3, IL-3Rα/GM-CSFRα chimeric protein, region 7 (192-GIPCTDK-198) of IL-3Rα replaced by GM-CSFRα sequence, on … (human, UniProt P26951 19-378)
T3 construct: also called Region 7 (B)
T3 chain: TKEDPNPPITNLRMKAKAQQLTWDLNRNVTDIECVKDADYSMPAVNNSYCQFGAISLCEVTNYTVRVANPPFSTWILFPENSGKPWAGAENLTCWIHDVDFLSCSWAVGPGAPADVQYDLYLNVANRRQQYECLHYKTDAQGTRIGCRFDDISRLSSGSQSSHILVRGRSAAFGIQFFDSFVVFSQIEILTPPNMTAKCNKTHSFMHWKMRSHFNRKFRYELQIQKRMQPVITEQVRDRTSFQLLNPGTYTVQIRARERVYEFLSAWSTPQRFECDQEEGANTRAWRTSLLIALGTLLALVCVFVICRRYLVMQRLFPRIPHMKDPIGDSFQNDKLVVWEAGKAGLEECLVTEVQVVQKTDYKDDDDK

[4] = biological target: T4, IL-3Rα/GM-CSFRα chimeric protein, B domain of IL-3Rα replaced by that of GM-CSFRα, on HEK293T cells (human, UniProt P15509 115-213)
T4 construct: domain: B domain; The KpnI sites (GGTACC) at both junctions each encode an extra Gly-Thr; also called B domain substitution
T4 sequence: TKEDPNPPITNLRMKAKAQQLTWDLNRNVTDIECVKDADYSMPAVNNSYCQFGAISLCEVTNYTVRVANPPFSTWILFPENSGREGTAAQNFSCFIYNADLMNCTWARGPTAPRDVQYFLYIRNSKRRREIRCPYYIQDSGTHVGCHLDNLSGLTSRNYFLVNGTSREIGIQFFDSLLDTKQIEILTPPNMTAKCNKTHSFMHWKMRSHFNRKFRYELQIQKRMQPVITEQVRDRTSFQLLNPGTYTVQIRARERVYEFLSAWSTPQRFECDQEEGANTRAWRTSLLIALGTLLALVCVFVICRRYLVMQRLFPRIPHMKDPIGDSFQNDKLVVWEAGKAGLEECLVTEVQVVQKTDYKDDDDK
Procedure: (§1) HEK293T cell (ATCC CRL 1268) was used for the preparation of the IL-3Rα/GM-CSFRα chimeric protein expression cell. Using 293Fectin (Invitrogen), the plasmid DNA obtained in the above was introduced as an expression vector into the HEK293T. The HEK293T to which the expression vector was introduced was cultured using a shaker under conditions of 5% CO₂ and 37° C. after 2 days of the introduction, the […] was used for in the flow cytometry analysis.
(§2) From 100,000 to 1,000,000 cells of the chimeric protein expression cell were allowed to react for 30 minutes on ice with at a concentration of 1 μg/ml with an AlexaFlour488-labeled human antibody or a commercially available FITC-labeled anti-IL-3Rα mouse antibody (7G3 or 9F5: both from BD Biosciences, 6H6: Acris Antibodies, AC145: Milteny Biotech, 107D2.08: Dendritics). A staining medium (Dulbecco's PBS supplemented with 2% fetal bovine serum, 2 mM EDTA and 0.05% NaN₃) was used for the dilution of antibodies and cells. Next, the cells reacted with antibodies were washed three times with the staining medium and whether the labeled antibody bound to the cell was confirmed by flow cytometry.

[5] = biological target: T5, IL-3Rα/GM-CSFRα chimeric protein, A domain of IL-3Rα replaced by that of GM-CSFRα, on HEK293T cells (human, UniProt P15509 23-114)
T5 construct: domain: A domain; The KpnI site (GGTACC) at the junction encodes an extra Gly-Thr; also called A domain substitution
T5 sequence: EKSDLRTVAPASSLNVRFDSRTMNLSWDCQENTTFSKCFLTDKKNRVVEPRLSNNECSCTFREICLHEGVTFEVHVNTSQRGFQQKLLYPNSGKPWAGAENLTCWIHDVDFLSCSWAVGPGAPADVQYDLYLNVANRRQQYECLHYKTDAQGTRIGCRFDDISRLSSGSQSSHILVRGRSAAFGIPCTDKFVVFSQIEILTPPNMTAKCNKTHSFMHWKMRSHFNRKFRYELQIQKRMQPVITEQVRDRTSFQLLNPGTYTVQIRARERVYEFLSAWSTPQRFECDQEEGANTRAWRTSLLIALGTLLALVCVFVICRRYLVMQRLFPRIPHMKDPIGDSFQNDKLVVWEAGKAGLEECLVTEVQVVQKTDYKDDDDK
Procedure: as §1, §2

- binding result [1]: no binding (tested: 1 µg/ml)
- binding result [2]: no binding (tested: 1 µg/ml)
- binding result [3]: no binding (tested: 1 µg/ml)
- binding result [4]: no binding (tested: 1 µg/ml)
- binding result [5]: no binding (tested: 1 µg/ml)
B1: Old19 anti-human IL-3Rα human antibody (antibody, human IgG1, V domains shown)
VH: QVQLVQSGAEVKKPGSSVKVSCKASGGTFSSYAISWVRQAPGQGLEWVGGIIPIFGTANYAQKFQGRVTITADESTSTAYMELSSLRSEDTAVYYCARGHKYGPYYFDYWGQGTLVTVSS
VL: DIQMTQSPSSLSASVGDRVTITCRASQGISSWLAWYQQKPEKAPKSLIYAASSLQSGVPSRFSGSGSGTDFTLTISSLQPEDFATYYCQQYNSYPRTFGQGTKVEIK
notes: Human antibody; recombinant form in N5KG1-Val Lark vector (human IgG1, kappa)
